# Substitutions are numbered along the chain they refer to.
# B1: 5260 (antibody, V domains shown)
# VH: QVQLVQSGAEVKKPGSSVKVSCKASGGTFSSYAISWVRQAPGQGLEWMGSIIPIFGTANYAQKFQGRVTITADESTSTAYMELSSLRSEDTAVYYCARSGGTKYGMLDVWGQGTMVTVSS
# VL: EIVMTQSPATLSVSPGERATLSCRASQSVGSNLAWYQQKPGQAPRLLIYGASTRATGIPARFSGSGSGTEFTLTISSLQSEDFAVYYCQQAVVWPPRTFGGGTKVEIK
# B2: 5571 (antibody, V domains shown)
# VH: B1 VH with S50N, M115V
# VL: B1 VL with G30S, A91L, V92I, V93L
# B3: 5536 (antibody, V domains shown)
# VH: B1 VH
# VL: B1 VL with A91S, V92Y, V93L
# B4: 5883 (antibody, V domains shown)
# VH: B1 VH with S50G, F55G, T57G
# VL: B1 VL with G30S, A91L, V92I, V93L
# B5: 5572 (antibody, V domains shown)
# VH: B1 VH
# VL: B1 VL with A91L, V92Y, V93T
# B6: 5878 (antibody, V domains shown)
# VH: EVQLLESGGGLVQPGGSLRLSCAASGFTFSSYAMSWVRQAPGKGLEWVSAISGSGISTPYADSVKGRFTISRDNSKNTLYLQMNSLRAEDTAVYYCAKGAGHGSYVKGWFDPWGQGTLVTVSS
# VL: EIVLTQSPATLSLSPGERATLSCRASQSVSSYLAWYQQKPGQAPRLLIYDASNRATGIPARFSGSGSGTDFTLTISSLEPEDFAVYYCQQSVNFPFTFGGGTKVEIK
# B7: 5583 (antibody, V domains shown)
# VH: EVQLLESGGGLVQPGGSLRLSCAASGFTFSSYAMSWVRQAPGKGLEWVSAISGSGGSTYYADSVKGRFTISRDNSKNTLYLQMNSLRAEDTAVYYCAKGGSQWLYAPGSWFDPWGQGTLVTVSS
# VL: B6 VL with Q89V, S91R, V92S, F96W
# B8: 5881 (antibody, V domains shown)
# VH: B6 VH with S31K
# VL: B6 VL
# B9: 5876 (antibody, V domains shown)
# VH: EVQLLESGGGLVQPGGSLRLSCAASGFTFSSRAMGWVRQAPGKGLEWVSATSGSGGSIYYADSVKGRFTISRDNSKNTLYLQMNSLRAEDTAVYYCAKGGSQWLYAPGSWFDPWGQGTLVTVSS
# VL: B6 VL with Q89V, S91R, V92S, F96W
# B10: 5875 (antibody, V domains shown)
# VH: B9 VH with S31T, R32Y, I58T
# VL: B6 VL with Q89V, S91R, V92S, F96W
# B11: 5532 (antibody, V domains shown)
# VH: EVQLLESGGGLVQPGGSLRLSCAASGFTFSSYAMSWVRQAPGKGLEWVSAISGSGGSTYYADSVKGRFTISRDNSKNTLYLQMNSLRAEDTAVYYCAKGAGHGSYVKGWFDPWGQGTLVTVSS
# VL: B6 VL with V92S
# B12: 5880 (antibody, V domains shown)
# VH: B6 VH with S30G, S35T
# VL: B6 VL
# B13: 5874 (antibody, V domains shown)
# VH: B9 VH with S30G, R32Y, G35S, I58T, N84D
# VL: B6 VL with Q89V, S91R, V92S, F96W
# B14: 5592 (antibody, V domains shown)
# VH: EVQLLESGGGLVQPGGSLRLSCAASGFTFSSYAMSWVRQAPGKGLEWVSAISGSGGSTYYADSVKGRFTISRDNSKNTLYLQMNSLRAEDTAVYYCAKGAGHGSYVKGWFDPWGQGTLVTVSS
# VL: B6 VL
# B15: 5643 (antibody, V domains shown)
# VH: QLQLQESGPGLVKPSETLSLTCTVSGGSISSSSYYWGWIRQPPGKGLEWIGSIYYSGSTYYNPSLKSRVTISVDTSKNQFSLKLSSVTAADTAVYYCARVGHGISYFDLWGRGTLVTVSS
# VL: EIVLTQSPATLSLSPGERATLSCRASQSVSSYLAWYQQKPGQAPRLLIYDASNRATGIPARFSGSGSGTDFTLTISSLEPEDFAVYYCQQSLTWPPRTFGGGTKVEIK
# B16: 5543 (antibody, V domains shown)
# VH: B15 VH
# VL: B15 VL with S91A, L92Y, T93V
# B17: 5902 (antibody, V domains shown)
# VH: B15 VH with Y55R, Y60W
# VL: B15 VL with N53K, S91V, L92Y
# B18: 5747 (antibody, V domains shown)
# VH: B15 VH with S52N, V100L, I104Y
# VL: B15 VL with S91V, L92Y, T93L
# B19: 6298 (antibody, V domains shown)
# VH: B15 VH with S31W, G37S, S52N, V100L, I104Y, S105N
# VL: B15 VL with Y36F, S91V, L92Y, T93V
# B20: 6296 (antibody, V domains shown)
# VH: B15 VH with S52N, K66R, S67G, V100L, I104Y, S105N
# VL: B15 VL with Y36F, S91V, L92Y, T93V
# B21: 6297 (antibody, V domains shown)
# VH: B15 VH with S28P, S52N, K66R, S67G, V100L, I104Y, S105N
# VL: B15 VL with Y36F, S91V, L92Y, T93V
# B22: 6288 (antibody, V domains shown)
# VH: B15 VH with I29T, Y55R, K66R
# VL: B15 VL
# B23: 6289 (antibody, V domains shown)
# VH: B15 VH with Y55R, K66R, A98V
# VL: B15 VL
# B24: 6290 (antibody, V domains shown)
# VH: B15 VH with S52M, Y60W, H102L, I104V
# VL: B15 VL with N53K, S91V, L92Y
# B25: 6294 (antibody, V domains shown)
# VH: B15 VH with Y34H, S52M, Y60W, I104V
# VL: B15 VL with N53K, S91V, L92Y
# B26: 6285 (antibody, V domains shown)
# VH: B15 VH with I29T, Y55R
# VL: B15 VL with N53S
# B27: 6291 (antibody, V domains shown)
# VH: B15 VH with S52M, Y60W, I104V
# VL: B15 VL with D50G, N53K, S91V, L92Y
# B28: 6293 (antibody, V domains shown)
# VH: B15 VH with S52M, Y60W, K66R, I104V
# VL: B15 VL with N53K, S91V, L92Y
# Biological target: human BACE1 ECD (human, UniProt P56817)
# Sequence (P56817 22-457): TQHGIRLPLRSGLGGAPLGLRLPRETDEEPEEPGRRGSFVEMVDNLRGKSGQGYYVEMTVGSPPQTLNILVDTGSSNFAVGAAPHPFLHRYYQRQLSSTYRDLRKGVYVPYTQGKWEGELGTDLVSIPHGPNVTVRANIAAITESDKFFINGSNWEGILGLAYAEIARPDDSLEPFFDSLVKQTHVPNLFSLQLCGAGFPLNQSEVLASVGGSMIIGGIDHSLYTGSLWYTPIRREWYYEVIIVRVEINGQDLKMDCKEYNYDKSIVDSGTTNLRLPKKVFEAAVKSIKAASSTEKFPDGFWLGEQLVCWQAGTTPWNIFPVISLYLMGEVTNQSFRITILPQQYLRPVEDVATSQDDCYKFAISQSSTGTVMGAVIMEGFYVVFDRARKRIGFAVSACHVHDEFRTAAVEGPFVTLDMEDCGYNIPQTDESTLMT
# Experiment: cell-based or functional assay
# Wherever % inhibition, FRET short substrate assay (negative = activation) is given: test concentration or dose not given here.
row,"% inhibition, FRET short substrate assay (negative = activation)",Binder
1,-54%,B1
2,-89%,B2
3,32%,B3
4,-129%,B4
5,75%,B5
6,99%,B6
7,44%,B7
8,97%,B8
9,58%,B9
10,51%,B10
11,56%,B11
12,99%,B12
13,37%,B13
14,63%,B14

# Biological target: murine BACE1 ECD
# Sequence (single chain, as listed by the source limits assumed): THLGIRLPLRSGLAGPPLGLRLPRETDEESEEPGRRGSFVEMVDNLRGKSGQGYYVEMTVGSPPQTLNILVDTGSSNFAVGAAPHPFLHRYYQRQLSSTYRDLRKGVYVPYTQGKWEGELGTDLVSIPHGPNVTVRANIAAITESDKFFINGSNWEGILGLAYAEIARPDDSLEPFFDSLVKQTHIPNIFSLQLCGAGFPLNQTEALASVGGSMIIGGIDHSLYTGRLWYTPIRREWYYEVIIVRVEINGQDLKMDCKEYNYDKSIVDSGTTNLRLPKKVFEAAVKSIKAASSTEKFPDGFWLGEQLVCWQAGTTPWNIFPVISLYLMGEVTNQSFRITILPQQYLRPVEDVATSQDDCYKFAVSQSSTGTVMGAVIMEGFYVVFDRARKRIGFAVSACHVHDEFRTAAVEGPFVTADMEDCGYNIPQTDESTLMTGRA
# Experiment: cell-based or functional assay
row,"% inhibition, FRET short substrate assay (negative = activation)",Binder
1,-35%,B1
2,-175%,B2
3,30%,B3
4,-275%,B4
5,77%,B5
6,98%,B6
7,34%,B7
8,98%,B8
9,46%,B9
10,39%,B10
11,50%,B11
12,97%,B12
13,33%,B13
14,60%,B14

# Biological target: BACE1 ECD (as used in the enzyme activity assay) (UniProt P56817 22-457, limits assumed)
# Sequence (P56817 22-457 limits assumed): as the sequence (P56817 22-457) above
# Experiment: cell-based or functional assay
"EC50, FRET short substrate assay","EC50, HTRF long substrate assay",Binder
36.8 nM,720 nM,B1
0.417 nM,5.06 nM,B2
,0.578 nM,B3
1.41 nM,17.7 nM,B15
0.607 nM,5.93 nM,B4
15.9 nM,1.28 nM,B5
9.11 nM,30 nM,B16
24.3 nM,164 nM,B6
9.72 nM,172 nM,B7
5.93 nM,33.7 nM,B8
0.703 nM,1.67 nM,B9
1.99 nM,4.9 nM,B10
52.3 nM,104 nM,B11
7.88 nM,171 nM,B12
0.798 nM,3.97 nM,B13
95.9 nM,189 nM,B14

# Biological target: T1, BACE1 endogenous to primary cortical neurons from E16.5 CD1 mice (mouse, UniProt P56818 46-501)
# T1 sequence (P56818 46-501): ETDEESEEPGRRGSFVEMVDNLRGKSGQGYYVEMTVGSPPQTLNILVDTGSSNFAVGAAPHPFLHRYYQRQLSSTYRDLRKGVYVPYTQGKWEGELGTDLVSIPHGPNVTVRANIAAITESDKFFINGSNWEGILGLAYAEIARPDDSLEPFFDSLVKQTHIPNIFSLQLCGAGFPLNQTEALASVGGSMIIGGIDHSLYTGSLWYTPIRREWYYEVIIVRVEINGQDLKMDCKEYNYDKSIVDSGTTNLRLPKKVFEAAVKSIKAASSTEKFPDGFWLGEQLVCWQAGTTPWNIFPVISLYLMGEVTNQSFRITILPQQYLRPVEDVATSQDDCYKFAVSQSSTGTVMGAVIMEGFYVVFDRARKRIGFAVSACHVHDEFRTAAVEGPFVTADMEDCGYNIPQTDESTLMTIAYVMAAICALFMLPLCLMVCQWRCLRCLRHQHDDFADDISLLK
# Experiment: cell-based or functional assay
row,"max % inhibition, Abeta x-40 in mouse cortical neurons",Binder
1,74%,B1
2,84%,B2
3,84%,B3
4,67%,B17
5,60%,B15
6,82%,B4
7,73%,B5
8,74%,B18
9,65%,B16

# Biological target: T1, BACE1 endogenous to primary cortical …
# Experiment: cell-based or functional assay
# Remark: another data set of the same source
row,"max % inhibition, Abeta x-40 in mouse cortical neurons",Binder
1,67%,B19
2,62%,B20
3,63%,B21
4,67%,B22
5,74%,B23
6,63%,B24
7,59%,B25
8,57%,B26
9,68%,B27
10,75%,B28
